B1: library; numbered along this chain (parent)
chain: MAAAAAAAAEQQSSNGPVKKSMREKAVERRSVNKEHNSNFKAGYIPIDEDRLHKTGLRGRKGNLAICVIILLFILAVINLIITLVIWAVIRIGPNGCDSMEFHESGLLRFKQVSDMGVIHPLYKSTVGGRRNENLVITGNNQPIVFQQGTTKLSVENNKTSITSDIGMQFFDPRTQNILFSTDYETHEFHLPSGVKSLNVQKASTERITSNATSDLNIKVDGRAIVRGNEGVFIMGKTIEFHMGGNMELKAENSIILNGSVMVSTTRLPSSSSGDQLGSGDWVRYKLCMCADGTLFKVQVTSQNMGCQISDNPCGNTH

Variants of: B1
Experiment: SGCB cell-surface expression functional score (HA stain, bin4 vs bin1, normalised to synonymous) (log10 ratio); higher = more cell-surface SGCB (functional)
In short: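 Sorting and sequencing yield the functional score, defined as the log ratio of a variant's highest-bin frequency to its lowest-bin frequency, with the median taken over codons and replicate transductions. The libraries, codon-saturation sets of HA-tagged, YFP-fused human beta-sarcoglycan, went into HEK293 cells stably carrying alpha-, gamma- and delta-sarcoglycan by duplicate lentiviral transduction at MOI <0.1. Cells were stained on ice with Alexa Fluor 647 anti-HA, fixed and split into four 5% intensity bins, and synonymous variants were scaled per section to mean 0, SD 0.5.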

SGCB cell-surface expression functional score (log10), by site and new letter:
M235: W 0.91 | N 1.02 | S 0.53 | Q 0.65 | V 0.18 | G 0.75 | D -0.066 | C 0.86 | H 0.69 | F 0.84 | A 0.36 | E 0 | P -0.94 | R 0.56 | I 0.26 | K 0.78 | Y 0.92 | L 0.66 | T 0.37
T238: N 0.67 | K 0.3 | C 0.64 | L 0.67 | W -0.07 | E 0.87 | G 0.71 | H 0.24 | V 0.95 | P -0.64 | A 0.6 | Q 0.63 | D 0.72 | F 0.86 | R 0.94 | Y -0.01 | M 0.93 | I 0.62 | S 0.64
E240: H 0.77 | G 0.76 | N 0.97 | Q 1 | C 0.37 | D 0.58 | K 0.46 | V 0.99 | F 0.84 | A 0.93 | S 0.98 | L 0.37 | T 1 | M 1.09 | W 0.422 | R 0.44 | I 0.23 | P -0.9 | Y 0.83
M243: H 0.52 | S 0.81 | G 0.64 | D -0.38 | L 0.43 | E 0.01 | V 0.49 | Q 0.88 | W -0.253 | A 0.83 | N 1.08 | F 1.18 | Y 0.13 | P 0.21 | I 0.18 | R -0.97 | C 0.71 | T 0.83 | K -0.64
G245: F -0.16 | E 1.16 | M 1.44 | I 0.57 | D 0.77 | S 0.78 | H 0.52 | R 0.49 | A 0.6 | P 0.4 | K 0.91 | L 0.83 | C 0.61 | N 0.59 | T 0.57 | Q 0.99 | V -0.07
I234: Y -0.62 | V 0.49 | S -0.92 | Q -1.65 | M 0.48 | A -0.02 | D -0.5 | T 0.09 | G -1 | H -1.04 | N -1.67 | K -1.32 | W 0.32 | F 1.03 | E -1.49 | L 0.43 | C 0.01 | P -0.22 | R -1.51
I239: W -0.02 | A 0.09 | G -0.41 | P -1.08 | F -0.45 | H -0.15 | L 0.49 | V 0.12 | M 0.83 | K -1.38 | E 0 | R -1.04 | N -1.44 | D -1.13 | Q -1.16 | C 0.46 | T 0.15 | S -1.1 | Y -1.52
E230: D 0.26 | L 0.63 | R 0.28 | N 0.82 | G 0.43 | A 0.38 | I 0.14 | S 0.75 | Q 0.32 | Y 0.86 | F 1.05 | T 1.29 | H 0.9 | K 0.42 | V 0.49 | W 0.47 | M 0.53 | P -0.01 | C 1.05
N229: K 0.95 | P 0.68 | L 0.33 | G 0.8 | D 0.08 | S 0.94 | A 0.8 | V 0.87 | F 1.19 | W 0 | T 0.29 | I 0.92 | E 0.51 | Y -0.25 | R 0.82 | C 0.72 | H 1.03 | M 1.28 | Q 0.93
G244: W 0.55 | N 0.77 | E 0.47 | K 0.23 | S 0.77 | A 0.67 | L 0.86 | M 1.17 | H 0.75 | Q 0.86 | D 0.99 | I -0.24 | C 0.21 | Y -0.22 | F 1 | V 0.12 | T 0.66 | P 0.1 | R 0.41
F241: K -1.17 | N -0.57 | H -2.08 | T -0.91 | I 0.2 | E 0.03 | C 0.62 | L 0.35 | A 0.14 | Y -0.82 | P -0.89 | D -0.57 | Q -1.74 | W 1.2 | R -1.19 | G -0.98 | V -0.37 | S -1.23 | M 0.82
F233: R 0.69 | V 0.18 | W 0.09 | K 0.34 | G -0.1 | M 1.15 | Q 0.77 | D -0.146 | T 0.7 | I 0.99 | L 0.47 | H 0.36 | C -0.13 | P -1.53 | N 0.87 | A 0.97 | Y 0.56 | S 0.62 | E 0.63
H242: K 1.04 | F 0.89 | G 0.87 | Q 0.68 | T 0.66 | S 0.93 | C 1 | R 0.39 | A 0.4 | I 0.92 | N 0.39 | E 0.36 | M 0.2 | P -0.67 | L 0.7 | Y 0.47 | D 0.83 | V 0.71 | W 0.6
V232: S -0.67 | T 0 | C 0.7 | W -1.85 | Y -1.09 | R -1.12 | E -1.63 | M 0.68 | A -0.53 | N -1.99 | I 0.47 | Q -1.69 | L 0.35 | D -1.72 | P -0.64 | F 0.02 | H 0.69 | G -0.27 | K -1.43
K237: G 0.05 | E 0.47 | C 0.61 | Q -0.79 | D 0.73 | Y 0.48 | V 0.29 | S 0.2 | N 0.32 | I 0.24 | W 0.453 | L 0.6 | A 0.85 | M 0.8 | F 0.86 | P 0.32 | R 0.73 | T 0.58 | H -0.04
G231: Q -0.92 | D -0.08 | W -1.9 | K -1.12 | I -1.29 | F -0.12 | L -0.37 | M -1.23 | V -1.02 | N -0.19 | C -0.5 | P -1.37 | S -0.88 | A -0.01 | H -0.09 | T -0.29 | R 0.27 | E 0.17 | Y 0.68
G228: Q -1.35 | P -1.47 | K -1.33 | I -1.44 | N -0.63 | Y -2.12 | R -0.47 | T -0.37 | W -1.51 | L -1.15 | V -1.04 | M -0.15 | S 0.43
G236: R -1.3 | A 0.11 | T -0.62 | E -1.08 | L -1.75 | S -0.08 | C -1.64 | W -2.11 | Y -1.44 | F -1.96 | K -2 | P -1.06 | Q 0.48 | N -1.82 | M -2.18 | V -1.25 | I -1.64 | D -0.43 | H -1.67

Reference: the supplement of paper PMC10266784
